± gives the standard deviation of the averaged measurements.

The source of these data is the supplement of paper PMC11246515.

A short description of the data set: total protein half-life in vivo (active degradation + dilution); higher = more stable protein.
The mark [1] stands for this setting: wild type E. coli NCM3722, growth: C-lim chemostat, doubling time 3 h.
[2] abbreviates: wild type E. coli NCM3722, growth: C-lim chemostat, doubling time 6 h.
Setting [3] is: wild type E. coli NCM3722, growth: C-lim chemostat, doubling time 12 h.
The mark [4] stands for this setting: E. coli NCM3722 delta-clpP delta-lon delta-hslV, growth: N-lim chemostat, doubling time 6 h.
Setting [5] is: E. coli NCM3722 delta-lon, growth: N-lim chemostat, doubling time 6 h.
Where [6] appears, read: E. coli NCM3722 delta-smpB, growth: N-lim chemostat, doubling time 6 h.
Setting [7] is: wild type E. coli NCM3722, growth: N-lim chemostat, doubling time 6 h.
Where [8] appears, read: wild type E. coli NCM3722, growth: N-lim chemostat, doubling time 12 h.
[9] abbreviates: wild type E. coli NCM3722, growth: P-lim chemostat, doubling time 6 h.
Where [10] appears, read: wild type E. coli NCM3722, growth: P-lim chemostat, doubling time 12 h.
The mark [11] stands for this setting: E. coli NCM3722 delta-clpP, growth: N-lim chemostat, doubling time 6 h.
Where [12] appears, read: E. coli NCM3722 delta-hslV, growth: N-lim chemostat, doubling time 6 h.

In the case of “MNRWENIQLTHENRLAPRAYFFSYDSVAQARTFARETSSLFLPLSGQWNFHFFDHPLQVPEAFTSELMADWGHITVPAMWQMEGHGKLQYTDEGFPFPIDVPFVPSDNPTGAYQRIFTLSDGWQGKQTLIKFDGVETYFEVYVNGQYVGFSKGSRLTAEFDISAMVKTGDNLLCVRVMQWADSTYVEDQDMWWSAGIFRDVYLVGKHLTHINDFTVRTDFDEAYCDATLSCEVVLENLAASPVVTTLEYTLFDGERVVHSSAIDHLAIEKLTSASFAFTVEQPQQWSAESPYLYHLVMTLKDANGNVLEVVPQRVGFRDIKVRDGLFWINNRYVMLHGVNRHDNDHRKGRAVGMDRVEKDLQLMKQHNINSVRTAHYPNDPRFYELCDIYGLFVMAETDVESHGFANVGDISRITDDPQWEKVYVERIVRHIHAQKNHPSIIIWSLGNESGYGCNIRAMYHAAKALDDTRLVHYEEDRDAEVVDIISTMYTRVPLMNEFGEYPHPKPRIICEYAHAMGNGPGGLTEYQNVFYKHDCIQGHYVWEWCDHGIQAQDDHGNVWYKFGGDYGDYPNNYNFCLDGLIYSDQTPGPGLKEYKQVIAPVKIHARDLTRGELKVENKLWFTTLDDYTLHAEVRAEGETLATQQIKLRDVAPNSEAPLQITLPQLDAREAFLNITVTKDSRTRYSEAGHPIATYQFPLKENTAQPVPFAPNNARPLTLEDDRLSCTVRGYNFAITFSKMSGKPTSWQVNGESLLTREPKINFFKPMIDNHKQEYEGLWQPNHLQIMQEHLRDFAVEQSDGEVLIISRTVIAPPVFDFGMRCTYIWRIAADGQVNVALSGERYGDYPHIIPCIGFTMGINGEYDQVAYYGRGPGENYADSQQANIIDIWRSTVDAMFENYPFPQNNGNRQHVRWTALTNRHGNGLLVVPQRPINFSAWHYTQENIHAAQHCNELQRSDDITLNLDHQLLGLGSNSWGSEVLDSWRVWFRDFSYGFTLLPVSGGEATAQSLASYEFGAGFFSTNLHSENKQ”, the “total protein half-life in vivo” value under setting [1] was determined as 3.17 ± 0.0082 h, the “total protein half-life in vivo” value under setting [2] was determined as 5.26 ± 0.23 h and the “total protein half-life in vivo” value under setting [3] is 12.4 ± 2 h.

For the sequence “MFKKILFPLVALFMLAGCAKPPTTIEVSPTITLPQQDPSLMGVTVSINGADQRTDQALAKVTRDNQIVTLTASRDLRFLLQEVLEKQMTARGYMVGPNGPVNLQIIVSQLYADVSQGNVRYNIATKADIAIIATAQNGNKMTKNYRASYNVEGAFQASNKNIADAVNSVLTDTIADMSQDTSIHEFIKQNAR [P0ADA5]”, the “total protein half-life in vivo” value by setting is: under setting [4], 6.32 ± 1.6 h; under setting [5], 6.15 ± 0.68 h; under setting [6], 5.86 ± 0.59 h; under setting [1], over 4 h; under setting [2], 7.64 ± 0.29 h; under setting [3], 12.6 ± 0.17 h. For the same sequence, the “total protein half-life in vivo” value is, setting by setting: under setting [7], 6.36 ± 0.12 h; under setting [8], 13 ± 0.98 h; under setting [9], 6.254 ± 0.035 h; under setting [10], 14.94 ± 0.13 h.

With “MDNVELSPATRWGMIATGLLQGLVCYLLIAWLSGKNHSWIVYGVPATVAFSSVLLFSVISFKQKRLWGWLALVFIATLGMSGWLKWQTDGMNPWRAEKALWDFGCYLLLMAMLLLPWIQQSLRIRNDSSRYRYFYQSVWHNVLILLVIFLANGLTWLVLLLWSELFKLVGITFFNTLFFATDWFIYLTLGLVTALAVILARTQSRLIDSIQKLFTLIATGLLPLVSLLTLMFIITLPFTGLSAISRHISAAGLLLTLAFLQLILMAIVRDPQKASLPWTGPLRCLIKTALLVAPLYVFVAAWALWLRVAQYGWTVDRLQGVLAVLVLLVWSLGYFVSIVWRKGQNPVVLQGKVNLAVSLLVLVILVLLNSPVLDSMRISVNSHMARYQSGKNTSDQVTIYMLEQSGRYGRAALESLKSDAGFMKDPKRARDLLMALDGEQHLQQQVSEKVLADNVLIAPGSVKPDATFWSALIQDRYNVMTCIEKDACVLVEQDLNSDGQAERILFAFNDDRVIVYGFDSDRKEWDALDMSLLPNEITKEKLLTAAKDGKLGTKPKAWRDLVVDGERLNVNLNE”, the “total protein half-life in vivo” value was 4.79 h under setting [4]; 3.51 h under setting [11]; 3.21 h under setting [12]; 3.27 h under setting [5]; 2.97 ± 0.52 h under setting [6]; 3.78 h under setting [1]. Also, the “total protein half-life in vivo” value by setting is: under setting [2], 3.86 ± 0.18 h; under setting [3], 6.23 h; under setting [10], 3.39 h.

Consider “MKKNSYLLSCLAIAVSSACHAEVLTYPDPLGSSQSDFGGTGLLQMPNARIAPEGEFSVNYRDNDQYRFYSTSVALFPWLEGTIRYTDVRTRKYSQWEDFSGDQSYKDKSFDFKLRLWEEGYWLPQVAFGKRDIAGTGLFDGEYLVASKQAGPFDFTLGMAWGYAGNAGNITNPFCRVSDKYCHRAESHDAGDISFSDIFRGPASIFGGIEYQTPWNPLRLKLEYDGNNYQNDFAGKLPQASHFNVGAVYRAASWADLNLSYERGNTLMFGFTLRTNFNDLRPALRDTPKPAYQPAPESEGLQYTTVANQLTALKYNAGFDAPEIQLRDKTLYMSGQQYKYRDSREAVDRANRILVNNLPQGVEKISVTQKREHMAMVTTETDVASLRKQLAGTAPGQSEPLQQQRVEAEDLSAFGRGYRIREDRFSYSFNPTLSQSLGGPEDFYMFQLGLMSSARYWFTDHLLLDGGIFTNIYNNYDKFKSSLLPADSTLPRVRTHIRDYVRNDVYLNNLQANYFADLGNGFYGQVYGGYLETMYAGVGSELLYRPLDACWALGVDVNYVKQRDWDNMMRFTDYSTPTGFVTAYWNPPTLNGVLMKLSVGQYLAKDKGATIDVAKRFDSGVAVGVWAAISNVSKDDYGEGGFSKGFYISIPFDLMTIGPNRNRAVVSWTPLTRDGGQMLSRKYQLYPMTAEREVPVGQ”, for which the “total protein half-life in vivo” value is 4.97 ± 0.12 h under setting [4]; 6.08 ± 0.65 h under setting [12]; 3.09 h under setting [1]; 10.3 h under setting [3]; 6.71 h under setting [7]; over 16 h under setting [10].

“MNIIEANVATPDARVAITIARFNNFINDSLLEGAIDALKRIGQVKDENITVVWVPGAYELPLAAGALAKTGKYDAVIALGTVIRGGTAHFEYVAGGASNGLAHVAQDSEIPVAFGVLTTESIEQAIERAGTKAGNKGAEAALTALEMINVLKAIKA”: the “total protein half-life in vivo” value runs as follows: under setting [11], 6.4 ± 0.16 h; under setting [12], 6.59 ± 0.59 h; under setting [6], 5.79 ± 0.1 h; under setting [1], 3.16 ± 0.054 h; under setting [2], 6.41 ± 0.27 h; under setting [3], 13.7 ± 0.27 h. Also, the “total protein half-life in vivo” value under setting [7] was found to be 6.17 ± 0.85 h, the “total protein half-life in vivo” value under setting [8] was found to be 12.8 ± 0.8 h, the “total protein half-life in vivo” value under setting [9] amounted to 5.73 ± 0.29 h and the “total protein half-life in vivo” value under setting [10] came out at 13.6 ± 0.3 h.

Consider “MTLLALGINHKTAPVSLRERVSFSPDKLDQALDSLLAQPMVQGGVVLSTCNRTELYLSVEEQDNLQEALIRWLCDYHNLNEEDLRKSLYWHQDNDAVSHLMRVASGLDSLVLGEPQILGQVKKAFADSQKGHMKASELERMFQKSFSVAKRVRTETDIGASAVSVAFAACTLARQIFESLSTVTVLLVGAGETIELVARHLREHKVQKMIIANRTRERAQILADEVGAEVIALSDIDERLREADIIISSTASPLPIIGKGMVERALKSRRNQPMLLVDIAVPRDVEPEVGKLANAYLYSVDDLQSIISHNLAQRKAAAVEAETIVAQETSEFMAWLRAQSASETIREYRSQAEQVRDELTAKALAALEQGGDAQAIMQDLAWKLTNRLIHAPTKSLQQAARDGDNERLNILRDSLGLE [P0A6X1]”, for which the “total protein half-life in vivo” value under setting [4] came out at 4.33 ± 0.069 h; the “total protein half-life in vivo” value under setting [11] turned out to be 2.95 ± 0.26 h; the “total protein half-life in vivo” value under setting [12] came to 1.55 h; the “total protein half-life in vivo” value under setting [5] is 1.59 ± 0.083 h; the “total protein half-life in vivo” value under setting [6] came to 1.51 ± 0.25 h; the “total protein half-life in vivo” value under setting [1] was found to be 1.03 h. Further, the “total protein half-life in vivo” value was 1.84 ± 0.15 h under setting [2]; 2.76 ± 0.68 h under setting [3]; 1.35 ± 0.31 h under setting [7]; 2.08 h under setting [8]; 1.29 ± 0.43 h under setting [9]; 1.9 h under setting [10].
